Measurements: the nanobody polyreactivity screen of Harvey et al. (2022)

Experiment: yeast display, Sf9 membrane polyspecificity reagent, FACS + sequencing; frameworks hold sequencing errors
Procedure, shortened: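 Galactose-induced (36–48 hours) yeast carrying a synthetic nanobody display library were exposed to 10% biotinylated, detergent-solubilized Sf9 membrane reagent at 4 °C for 1 hour. FACS followed streptavidin microbead enrichment, using low and high (top ~1%) gates for expression (anti-HA) and reagent binding (streptavidin). Colony PCR, MiSeq 2 × 250 sequencing and CDR-length filtering followed. Labels for polyreactivity reflect the gate of origin.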

Sequence	polyreactivity (PSR sort gate)
QVQLVESGGGLVQAGGSLRVSCAASGSTFNINAMGWYREAPGKERELVAAISSGGSTNYADSVKGRFTISRDNAKNTVYLQMNSLKPEDTAVYYCNADFILSGWWGIVGYDYWGQGTQVTVSS	low polyreactivity
QVQLVESGGGLVQAGGSLRVSCAASGSTFQYYAMGWYRQAPGKERELVARISDSSANTYYADSVKGRFTISRDNAKNTVYLQMNSLKPEYTAVYYCATRRSHVLSEMDYWGQGTQVTVSS	low polyreactivity
QVQLVESGGGLVQAGGSLRVSCAASGYTFKHYTMGWYREAPGKERELVATISIRGGNTSYADSVKGRFTISRDTAKNTVYLQMNSLKPEDTAVYYCAARSVNAPPRYRQKAGYDYWGQGTQETVSS	high polyreactivity
QVQLVESGGGLVQAGGSLRVSCADSGNILYLYAMGWYREAPGKERELVAAISGNGGRTYYADSVKGRFTISRDNAKNTVYLQMNSLKPEDTAVYDCAADYAGRRFWYYHGLDSWGQGTQVTVSA	high polyreactivity
QVQLVESGGGLVQAGGSLSLICAASGFTFGSNDMGWYRQAPGKERELVAAIDGSGDTYYADSVKGRFTISRDNAKNTVYLQMNSLKPEDTAVYYCARDDNPIYSGVTYDYWGQGTQVTVSS	low polyreactivity
QVQLVESGGGLVQAGGSLSLICAASGFTFVDYAMGWYRQAPGKERELVAAITVSGDSTYYADSVKGRFTISRDIAKNTVYFQMNSLKPEDTAVYYCAADPGYYDGGYWGQGTQVTVSS	low polyreactivity
QVQLVESGGGLVQAGGSLSLICAASGRIYYRYHMGWYRQAPGKERELVATISRSGGSTNYADSVKGRFTISRDNAKNTVYLQMNSLNPEYTAVYYCNALYLSTRSGDYWGQGTQVTVSS	high polyreactivity
QVQLVESGGGLVQAGGSLSLICAASGSTSYRYAMGWYRQAPGKERELVAGITRSGGSTYYADSVKGRFTISRDNAKNTVYLQMNSLKPEDTAVYYCAAYYSRQYVGYGYWGQGTQVTVSS	high polyreactivity
QVQLVESGGGLVQAGGSLSLICAASRLTFYLYAMGWYRQAPGKERELLAAISYSGGSTYYADSVKGRFTISRDNAKNTVYLQMNSLKPEDTAVYYCNALRAGTDSRRTYGSTYGYWGQGTQVTVSS	high polyreactivity
QVQLVESGGGLVQAGGSLSLSCAASARTFYGSAKGWYRQAPGKERELVAAINYSGGRTYYADSVKGRFTISRDNAKNTVYLQMNSLKAEDTAGYYCAAPRASGYYWGQGTQVTVSS	high polyreactivity
QVQLVESGGGLVQAGGSLSLSCAASGFTFAFYAMGWYRQAPGKERELVAAISWDGVTTYYADSVKGRFTISRDNAKNTVYLQMNSLKPEDTAVYYCAADYPDYAGSFWPSGMYYWGQGTQVTVSS	low polyreactivity
QVQLVESGGGLVQAGGSLSLSCAASGFTVKFYAMGWYRQAPGKERELVATISSRGTSTYYADSVKGRFTISRDNAKNTVYLQMNSLKPEDTAVYYCAAAWFPAYQYRYYYWGQGTQVTVSS	high polyreactivity
QVQLVESGGGLVQAGGSLSLSCAASGFTYRLYTMGWYRQAPGKERELVAGISTSGGSTYYADSVKGRFTISRDNAKHTVYLQMNSLKPEDTAVYYCAAQAFTSYDYWGQGTQVTVSS	high polyreactivity
QVQLVESGGGLVQAGGSLSLSCAASGGIFFIYTMGWKRQAPGKEREMVAAITSTGDTKYADSVKGRFTISRDNAKTTVYLQMNSLKPEDTAVYYCNKDNGTRGKGYDYWGQGTQVTVSS	low polyreactivity
QVQLVESGGGLVQAGGSLSLSCAASGGIFFYYAMGWYRQAPGKEMELVASISYSGGSTYYADSVKGRFTISRDNAKNTVYLQMNSLKTEDTAVYYCAARTHYFPWPWYVWDYDSWGQGTQVTVSS	low polyreactivity
QVQLVESGGGLVQAGGSLSLSCAASGLIFDVYAMGWYRKAPGKERELVAVISRGVSTNYPDSVKGRFTISRDNAKNTVYLQMNSLKPEDTAVYYCATDSRGYDYWGQCTQVTVSS	high polyreactivity

Sequence	polyreactivity (PSR sort gate)
QVQLVESGGGLVQAGGSLSLSCAASGLTFAKNAMGWYRQAPGKERELVAVITSSGGSTYYADSVKGRFTISRDNAKNTVYLQMNSLKPEDTAVYYCNVAYYDRSRSTGYEYWGQGTQVTVSS	high polyreactivity
QVQLVESGGGLVQAGGSLSLSCAASGLTFFGYAIGWYRQAPGKEREVVAAISTSGTRTYYADSVKGRFTISRDNAKNTVYLQMNSLKPEDTAVYYCATVRYQEYDYWGQGTQVTVSS	high polyreactivity
QVQLVESGGGLVQAGGSLSLSCAASGLTFYKNAMGWYRQAPGKERELVAVISSSGGSTYYADSVKGRFTISRDHAKNTVYLQMNSLKPEDTAVYYCARDLYTEYRWGRLTYDYWGQGTQVTVSS	low polyreactivity
QVQLVESGGGLVQAGGSLSLSCAASGRIFPYNDLGWYRQAPGKERELVADINSGDSTNYADSVKGRFTISRDNAKNTVYLQMNSLKPEDTAVYYCAAGYVRYPGVIDEYWGQGTQVTVSS	low polyreactivity
QVQLVESGGGLVQAGGSLSLSCAASGRIFTRYAMGWYRQAPGKERELVAAISYGGGGTYYADSVKGRFTISRDNAKNTVYLQMNSLKPEDTAVYYCATDDPLSQINEHGMDYWGQGTQVTVSS	low polyreactivity
QVQLVESGGGLVQAGGSLSLSCAASGRIFTYYAMGWYRQAPGKERELVAAINWGVVTTYYADSVKGRFTISRDNAKNTVYLQMNSLKPEDTAVYYCAADWFAANYYVNPVSALDYWGQGTQVTVSS	low polyreactivity
QVQLVESGGGLVQAGGSLSLSCAASGRIIDWNTMGLYRQAPGKERDLDATISWDGGTKYYADSVKGRFTISRDTAKNTVFLQMNSLKPEDTAVYYCNKSPLNFFRFRATYDYWGQGTQVTVSS	low polyreactivity
QVQLVESGGGLVQAGGSLSLSCAASGRIYNYAMGWYRQAPGKERELVAAITGRGGSTYYADSVKGRFTISRDNAKNTVYLQMNSLKPEDTAVYYCARAGGPRHDWGQGTQVTVSS	high polyreactivity
QVQLVESGGGLVQAGGSLSLSCAASGRNFLRNAMGWYRKAPGKERELVAAIKSGGNTYYADSVKGRFTISRDNAKITVYLQMNSLKPEYTAVYYCADRQYGFASYRMDYWGHGTQVTVSS	high polyreactivity
QVQLVESGGGLVQAGGSLSLSCAASGRTFLRYAMGWYRQAPGKERELVAAISWSGGRTYYADSVKGRFTISRDNAKNSVYLQMNSLKAEDTAVYYCNNVVLYGALYYYCGQGTQVTVSS	high polyreactivity
QVQLVESGGGLVQAGGSLSLSCAASGRTFSYYAMGWYRQAPGKERELVAAISRSGSITYYADSVKGRFTISRDNAKNTIYLQMNSLKPEDTAVYYCNADSSRRRYSSDYWGQGTQVTVSS	high polyreactivity
QVQLVESGGGLVQAGGSLSLSCAASGSIFDVNAMGWYRQAPGKERELVAAISDSGGSTYYADSVKGRFTISRDNAKNTVHLQMNSLKAEDTAVYYCNADWSWYNYYDFDYWGQGTQVTVSS	low polyreactivity
QVQLVESGGGLVQAGGSLSLSCAASGSIFHPYTMGWYRQAPGKERELVAGISQSSDSTYYADSVKGRFTISRDNAKNTVYLQMNSLKPEDTAVYYCNRDNDWPLSVVEVDYWGQGTQVTVSS	low polyreactivity
QVQLVESGGGLVQAGGSLSLSCAASGSIFLRNAMGWYRPAPGKERELVAAITRVGSTYADSVKGRFTISRDNAKNTVYLQMNSLKPEDTAVYYCAAVSGVRSGPWRYDYWGQGTQVTVSS	high polyreactivity
QVQLVESGGGLVQAGGSLSLSCAASGSIFPRYTMGSYRQAPGKERELVAAISRSGGSTYYADSVKGRFTISRDNAKNTVYLQMNSLKPADTAVYYCDKSRPSKYDYWGQGTQVTVSS	high polyreactivity
QVQLVESGGGLVQAGGSLSLSCAASGSIFQKYTMGWYRQAPRKERELVAAITRSGGSTYYADSVKGRFTISRDNAKNTVYLQMNSLKAEDSAVYYCNKRYIPWAYDYWGQGTQVTVSS	high polyreactivity
